This data set can be described thus: label from the status in PepcDB records.

As to “MNKKILLIGGGGHCKSVLDSLLDLDEYDDIGIIDTKENVGKAVLGTPILGYDRDLPSLYKDGYHYAFVAVGSIGNPSVRIRLFNTLCEMGFIIPNIVDASAKVSKHSQIDKGVFIGKHVVVNAGAVIGQGAIINSGAIVEHDCEIGEFVHIAPGTVLCGGVKIGRHSHIGTNSTVKQGIHIGSNCLIGMGSVVTKNIRDNVIAYGNPCREVKNLLEHHHHHH”, the protein production result is recorded as “failed”.
The result for “MNKKILTLLVLILSISSVLMLSKSITKKSKYKIIRDYFINSNYVLVKIENKDLKFTISKPIYDKKLNNYFFKGQTTSHFLISNNVDIAINTSPYEVKQNMFFPKGLYIYNKKMISKQINNYGEIVIKHNKIILNPKEDEIENCDYGFSGFFVLIKNGKYKKNFKETRHPRTIIGTDKNNKHLFLVTIEGRGVNNSKGASLNEAIDFALSYGMTNAINLDGGGSSTLVVKSNNAPYKLNFTANIFGQERPVPFHLGIKLPN” reads “failed”; that for “MNKLLLVAAGGAVGSVARYLVGVGAMRVMGPGWPYGTFTVNVVGGFLMGCLASWLAHRGNTSSETWRVMLGVGVLGGFTTFSSFSLETALMIQKRAYGQAFTYSAASVLLAIAALFAGLLVARKVFA”, “failed”; that for “MNKSSATIMAAALMLASSCTEVKQEGQGYEPIIGKQEITIKDGRLTPEALWAMGRIGSLSISPDGKQIAYTVAYYSVPENKSHHVIYVMDADGKNNTLLTQTAWNESEPQWIKGGTKIAFLCNESGGSQIWEMNPDGTERRIISDFKGNIEGFSFSPDGKKILFISQIKYGQRTVDLYPDLPKASGIIVNDLMYKHWDEWVESIPHPFIADFDGNMMGAATDIMEGEPFEAPMKPFGGIEQLAWSNDSKQIAYTSRKKQGLAYAVSTDSDIYLYNIEKGTTLNLCKPNGKDSNGTDEMKGYDTNPKFSPNGKYIAWQSMERDGYESDRNRLCIYNLDDGQKTFVTESFESGVDDYCWNNDSQSLYFVGVWHGTSMVYSANLNGDIKKLTDGMYDYGSVAMAGDKIITKRHSISAADEIYTLTPADGQVAQLSHENDHIFKQLNLGKVEERWTKTTDGKQMLSWVIYPVNFDANKKYPTLLFCEGGPQSPVSQFWSYRWNFQIMAANDYIIIAPNRRGLPGFGMEWLEQISGDYGGQCMKDYLSAIDDISKEPYVDTNRLGCVGASFGGFSVYWLAGHHDKRFKAFIAHDGIFNMEQQYLETEEMWFANWDMGGAYWDKNNATAQRTFANSPHRFVDKWDTPILCIHGEKDYRILASQGMSAFNAAVLRGVPAELLLYPDENHWVLKPQNGVLWQRTFFSWLDKWLK”, “failed”.
The entry for “MNLASIIGWGVGFGAILISMAFTPTGLGVFWDLSSVFITVVGSFSALMASSEVVAVKKIPTYLGFFFRRNSYAKVSIIKILVELSEKARKEGLLSLDDELEQINDPFFKSGMRLVVDGADPEVIRTMLYLELDQMQERHKVGSDLFKTWAKLAPAFGMTGTLIGLVALLGNLEDKSALGSSMAVALITTLYGTIMANLMFTPVQLKLEKIDTEEAAVKTMIIEGVLSIQSGDNPRILEQKLMTFLTPKDRSQLNSSIGGE” is “failed”; for “MNLDAPRVLVLNAAYEVLGLASIKRAVLLVLGGGAEMVSESGLYLNTPSTRIPVPSVVRLKRMVRRRPGRVPLNRRNVLRRDRYTCQYCGQKGGELTVDHVLPKSRGGKSTWDNLVAACRSCNLRKGDRTPEEAGMRLLRPPKPPRVPLFLLDLKEVPPDWRPFVEGLLGLEHHHHHH” it is “not failed”.
The entry for “MNLDHLYPFGFRSTLFDRLTPEYEDLKGLSIHQLRESVARDLEDLLNSRVAKMDDVLVNYPLARQSILQFGIIDFVGLSTANPMDREKICQSIEQSIAAHEPRLKQVKVEMLLDGHNMGALCLSIQAYLNIHPLYEPVVFDALLKPTTQQYVISAQT” is “failed”.
In the case of “MNLEPLRKRVRQYLDQQQYQSALFWADKVASLSHEEPQDVYWLAQCLYLTAQYHRAAHALRSRKLDKLYEACRYLAARCHYAAKEHQQALDILDMEEPINRRLFEKYLKDDNGSRDPSSDWEMSQSSIKSSICLLRGKIYDALDNRTLATYSYKEALKLDVYCFEAFDLLTSHHMLTAQEEKELLDSLPLNKLCAEEQELLRFVFENKLKKYNKPSETVIPESVDGLQENLDVVVSLAERHYYNCDFKMCYKLTSTVMEKDPFHANCLPVHIGTLVELNKANELFYLSHKLVDLYPSNPVSWFAVGCYYLMVGHKNEHARRYLSKATTLEKTYGPAWIAYGHSFAVESEHDQAMAAYFTAAQLMKGCHLPMLYIGLEYGLTNNSKLAERFFGQALSIAPEDPFVIHEVGVVAFQNGEWKTAEKWFLDALEKIKAIGNEVTVDKWEPLLNNLGHVCRKLKKYAEALDYHRQALVLIPQNASTYSAIGYIHSLMGNFENAVDYFHTALGLRRDDTFSVTMLGHCIEMYIGDSEAYIGADIKDKLKCYDFDVHTMKTLKNIISPPWDFRDFEVEKQNTEEAGLAPLQNSTKAPESRPNLEETFEIEMNESDMMLETSMSDHST”, the protein production entry is recorded as “failed”.
The result for “MNLESKWLEDFSALAATRSFSQAAERRFVTQPAFSRRIRSLEAALGLVLVNRSRTPVELTAAGQLFLVTARTVVEQLGEVVRHLHHLEGGQGEVMQVAAAHSLALGFFPRWIAQLRNEGLNIATRLVATNVGDAVHALREGGCDLMLAFYDPDAALQMDAEIFPSLHLGHTEMLPVCAADAEGRPLFDMEGEASVPLLAYSTGAFLGRSVNLLLRQRNLRFTTVYETAMADSLKSMALEGLGIAWVPQLSVRAELARGELVVCGGPQWHVPLEIRLYRCALVRKANVRLLWRKLESAAPPESL” reads “failed”; that for “MNLGQWGEIMSWLCLLPISGGIVYNLLTVFTTSLFLARSLPKQDFQPGVSVLKPVRGLEKNLEANLRTIAQQNYPAYEVIYCVQDPQDPALPIVKKLQAEFGPEKIIVAVHQIEQGANGKVNNLLGGLKHAKYDILVISDSDTNLRPDYLATMVSPLGDRLVGCVTTPFKLTQAQTWYEGLELLSINADFMPSVLFAEVTGASKACLGPSIAIRRSTLTEIGGLESLADYLVEDFELGQRVWTGGLKMVLLPYVIDAGVNLDNWTNWWSHQLYWDQNTYLARPLPFLATIIIRAVPFAFLFTFCHWSEPWAWLILFITLATRYGTAAIVAQELKDGETIRYLPLLLLRDCFGLVFWALSFSQRQVLWRGITYRLTKGGKMIPASPIPKS”, “failed”; that for “MNLKQISAIIIVKNAKQTLLECLNSLKDFDEIILLNNESSDNTLNIANEFKKDFANLHIYHSAFIGFGALKNLALSYAKNDWILSIDADEVLENECIKELKNLELQEDNIIALSRKNLYKGEWIKACGWWPDYVWRIFNKNFTRFNDNLVHESLVLPSNAKKIYLKNGLRHYAFRDISHLIDKMQYYSSLWAKQNIHKKSGVLKANLRAFWTFFRNYFLKNGFLYGYKGFIISVCNALGTFFKYMKLYELQKQKPKTCALIITTYNQKERLKLVLDSVKNLAFLPNEVLIADDGSKEDTARLIEEYQKDFPCPLKHIWQEDEGFRAAKSRNNAIKASKSEYIILIDGDMILEKDFVKNHLEFAKRKVILQGSRVILNKNESEEILKNNNYSLAFNKKGFKNQRSIFLAKCVYKFSKLTKKFFKKSQLVKGSKTCNMSFYKSDFEAIEGFNEKFIGWGREDSEFVARFLFNDGVFKRLKFNALAYHIYHEENSKNMLEINHQIYLETIKNEKTTWRLEHHHHHH”, “failed”.
As to “MNLLPKTREEFAQTDYWNEFFKKRGEKAFEWYGEYLELCDQIHKYIKPADRILMLGCGNSKLSMDMYDTGFRDITNIDISPIAVKKMLELNAKSRPEMKFLQMDATAMTFPDESFSVSLDKGTLDALFADDEPETRAVVENYFKEILRTMRNGGRYVGISLLQEHILNFLLDFLPKHNCMLRIVHCLGVEQANKEKNADDALTLPVFVVVATKFKSLPMPVLEFGFGNDKMQRFTTVSELNSAVSSVQKAALVCNGLARSNIAGHNEVIMDLHRPSEQTPRYTIHILDKPPARGLGKYAAFIVPQGREVEWIFSTPAGRKKLQDSANFQRLAVVTLHRDQVYSTLDEVKQELADSIKNLSPAGLTDQIPYLSLGSDVGKRETLICGFSKISGDFRIEEVEANGKTLRRLIFLSNQFVVQSEALVKTVKIKGKKDRKKIDFGYLACQHHLYMSVGVQLATTVQHPKRDVEKDVLVVGLGGGGLCSFLHAALPQARITAVEIDPIMLEVAEQYFELKQDKRFHVVIDDGLDFVERCRNEDIHFDAVLFDVDSKDLSLGMSCPPQSFLATKILQHIKEIIGPKGLFMLNLVCRDESLRTEALNNLHKVFPAVCSYKLEEDINEIIYCANDEKYKTVEQWKKNMGTAGRGLNSAVKETKLASEDALEVAEFLSELKI”, the protein production entry is “failed”.

For the origin of these results see a protein production outcome set (Wang et al. 2014).
